B1: TAT-SH3: TAT-SNX9(SH3) fusion polypeptide containing the full length SH3 domain (amino acids 1 to 62) (protein)
chain: MATKARVMYDFAAEPGNNELTVNEGEIITITNPDVGGGWLEGRNIKGERGLVPTDYVEILPS
modifications: left off: small tags and cut ends
B2: TAT-LC: SNX9 LC (low complexity) domain fused to cell penetrating TAT polypeptide; negative control (protein)
chain: DGKDQFSCGNSVADQAFLDSLSASTAQASSSAASNNHQVGSGNDPWSAWSASKSGNWESSEGWGAQPEGAGAQRNTNTPNNWDTAFGHPQAYQGPATGDDDDWDEDWDGPKSSSYFKDSESADAGGAQRGNSRASSSSMKI
modifications: left off: a dimerising Fc or GST

Columns and labels:
Assay type in all cases: cell-based
[1] = biological target: T1, pSmad3 (Mus musculus, UniProt Q8BUN5); assay: Nuclear import of pSmad3 (nuclear fractions Western, immunofluorescence) in AKR-2B cells; conditions: 90 minutes transduction, TGFβ 5 ng/mL 1 hour
T1 construct: endogenous in cells; host or cells: AKR-2B cells
Experimental: FIGS. 1A-C. SH3 domain of sorting nexin 9 (SNX9) specifically binds pSmad3 and prevents nuclear import. (A) Cartoon depicting domains in full length (FL) SNX9 and constructs used for GST pull down assays. Lysates from AKR-2B cells untreated (−) or stimulated (+) for 45 minutes with 5 ng/mL TGFβ were incubated with GST beads or the indicated fusion polypeptides immobilized on GST beads. Bound polypeptides were eluted and assessed by Western analysis for pSmad3 or pSmad2. Cell lysate reflects signal obtained from 10 μg total protein. (B) AKR-2B cells were transduced for 90 minutes with the indicated concentrations of the TAT-SNX9(SH3) fusion polypeptides. […] Quantitation of nuclear pSmads was performed with Image J software and represents the mean+/−sd of two experiments (Right). […] Quantitation of nuclear Smad3 from 30 cells in each of two experiments (Right).
(§1) FIGS. 3A-E. Inhibition of Smad3 signaling by a defined region of the SH3 domain in SNX9. […] (B) Nuclear fractions were prepared and assessed as in FIG. 1B following transduction with the indicated TAT-SNX9(SH3) fusion polypeptide (Left). Quantitation (mean+/−sd) of nuclear pSmad2 or pSmad3 from 2 experiments (Right). (C) Immunofluorescence of nuclear Smad3 was determined as in FIG. 1C from 30 cells in each of two experiments in the absence (−) or presence (+) of 5 ng/mL TGFβ and the indicated TAT-SNX9(SH3) fusion polypeptide (1.5 μM). […]

[2] = biological target: T2, pSmad2 (Mus musculus, UniProt Q62432); assay: Nuclear import of pSmad2 (nuclear fractions Western) in AKR-2B cells; conditions: 90 minutes transduction, TGFβ 5 ng/mL 1 hour
T2 construct: nuclear fractions were isolated, and Western blotted for pSmad2, pSmad3, or histone deacetylase 1 (HDAC); endogenous in cells; host or cells: AKR-2B cells
Experimental: FIGS. 1A-C. SH3 domain of sorting nexin 9 (SNX9) specifically binds pSmad3 and prevents nuclear import. (A) Cartoon depicting domains in full length (FL) SNX9 and constructs used for GST pull down assays. Lysates from AKR-2B cells untreated (−) or stimulated (+) for 45 minutes with 5 ng/mL TGFβ were incubated with GST beads or the indicated fusion polypeptides immobilized on GST beads. Bound polypeptides were eluted and assessed by Western analysis for pSmad3 or pSmad2. Cell lysate reflects signal obtained from 10 μg total protein. (B) AKR-2B cells were transduced for 90 minutes with the indicated concentrations of the TAT-SNX9(SH3) fusion polypeptides. Following washing and 1 hour TGFβ (5 ng/mL) treatment, nuclear fractions were isolated, and Western blotted for pSmad2, pSmad3, or histone deacetylase 1 (HDAC) (Left). Quantitation of nuclear pSmads was performed with Image J software and represents the mean+/−sd of two experiments (Right). (C) AKR-2B cells were transduced as in (B) with TAT-SH3 or TAT-LC (1.8 μM) and treated+/−TGFβ (5 ng/mL) for 1 hour. Immunofluorescence for Smad3 or the HA-tagged TAT-SNX9(SH3) fusion polypeptide was performed, and nuclei were stained with DAPI (Left panels). Quantitation of nuclear Smad3 from 30 cells in each of two experiments (Right).
AKR-2B cells were grown in DMEM supplemented with 10% fetal bovine serum (FBS). […]

[3] = system: Smad3 (3TP) reporter; assay: Smad3 (3TP) luciferase reporter assay in AKR-2B cells; conditions: 1.5 μM polypeptide, 5 ng/mL TGFβ, 12 hours
Experimental: (§2) FIGS. 2A-C. TAT-SH3 inhibits Smad3-dependent responses. (A) AKR-2B cells were transiently transfected with a Smad3 (3TP), Smad2 (ARE), or Smad1/5/8 (BRE) reporter construct, and luciferase activity determined following 12 hours incubation in the absence (−) or presence (+) of the indicated ligand (5 ng/mL TGFβ; 10 ng/mL BMP4) or TAT-SNX9(SH3) fusion polypeptide (1.5 μM). Data represent the mean+/−SEM of three experiments. (B) RT-PCR analysis of Smad3 (PAI-1 and CTGF) and Smad2 (MMP2) responsive gene following 24 hour treatment of AKR-2B cells with the indicated concentration of TAT-SNX9(SH3) fusion polypeptide or 5 ng/mL TGFβ. Loading was verified by GAPDH expression. (C) Soft agar colony formation was performed following seven days growth in the presence (+) or absence (−) of TGFβ (10 ng/mL) or the indicated TAT-SNX9(SH3) fusion polypeptide (1.5 μM). Data reflects the mean+/−sd of triplicate wells from three experiments.
(§3) For luciferase assays, 2×10^5 cells were plated in six well plates containing 10% FBS/DMEM. […] Cells were harvested in 200 μL of reporter lysis buffer (Promega, Madison, Wis.), and luciferase activity was determined in a Berthold Lumat 9507 luminometer after normalization for transfection efficiency with β-galactosidase.

[4] = system: Smad2 (ARE) reporter; assay: Smad2 (ARE) luciferase reporter assay in AKR-2B cells; conditions: 1.5 μM polypeptide, 5 ng/mL TGFβ, 12 hours
Experimental: as §2, §3

[5] = system: Smad1/5/8 (BRE) reporter; assay: Smad1/5/8 BMP (BRE) luciferase reporter assay in AKR-2B cells; conditions: 1.5 μM polypeptide, 10 ng/mL BMP4, 12 hours
Experimental: as §2
FIGS. 4A-E. A point mutant of TAT-SH3-2 abolishes the inhibitory action on Smad3 responses. […] (E) AKR-2B cells were transiently transfected with a BMP (BRE), EGF (SRE), or PDGF (MMP-1) reporter construct and luciferase activity determined following 12 hour incubation in the absence (−) or presence (+) of the indicated ligand (10 ng/mL BMP4, EGF, or PDGF), inhibitor (10 μM Dorsomophin; 3 μM Lapatinib; 2 μM CP868) or TAT-SNX9(SH3) fusion polypeptide (1.5 μM). […]

[6] = system: Smad3 targets (PAI-1, CTGF, Smad7); assay: RT-PCR/qPCR/Western of Smad3 responsive genes in AKR-2B cells; conditions: 5 ng/mL TGFβ, 24 hours
Experimental: as §2, with “Data reflects the mean+/−sd of triplicate wells from three experiments.” left out
as §1

[7] = system: Smad2 targets (MMP2, Goosecoid, Furin, MixL); assay: RT-PCR/qPCR of Smad2 responsive genes in AKR-2B cells; conditions: 5 ng/mL TGFβ, 24 hours
Experimental: as §2, with “Data reflects the mean+/−sd of triplicate wells from three experiments.” left out
as §1

[8] = system: AKR-2B cells; assay: Soft agar colony formation (anchorage-independent growth, AIG); conditions: 1.5 μM polypeptide, TGFβ 10 ng/mL, seven days
Experimental: as §2, with “Data reflects the mean+/−sd of triplicate wells from three experiments.” left out
as §1

T1 sequence (Q8BUN5 whole entry): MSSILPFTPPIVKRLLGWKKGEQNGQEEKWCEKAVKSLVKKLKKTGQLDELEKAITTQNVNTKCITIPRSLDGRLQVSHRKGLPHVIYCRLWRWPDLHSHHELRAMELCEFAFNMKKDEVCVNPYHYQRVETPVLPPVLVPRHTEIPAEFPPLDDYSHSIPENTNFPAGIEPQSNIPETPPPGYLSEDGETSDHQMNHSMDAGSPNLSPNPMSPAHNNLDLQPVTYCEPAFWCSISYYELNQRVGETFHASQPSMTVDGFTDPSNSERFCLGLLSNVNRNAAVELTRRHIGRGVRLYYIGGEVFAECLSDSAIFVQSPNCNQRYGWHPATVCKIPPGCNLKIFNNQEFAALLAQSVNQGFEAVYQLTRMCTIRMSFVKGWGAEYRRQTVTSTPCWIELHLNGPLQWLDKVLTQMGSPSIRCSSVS
T2 sequence (Q62432 whole entry): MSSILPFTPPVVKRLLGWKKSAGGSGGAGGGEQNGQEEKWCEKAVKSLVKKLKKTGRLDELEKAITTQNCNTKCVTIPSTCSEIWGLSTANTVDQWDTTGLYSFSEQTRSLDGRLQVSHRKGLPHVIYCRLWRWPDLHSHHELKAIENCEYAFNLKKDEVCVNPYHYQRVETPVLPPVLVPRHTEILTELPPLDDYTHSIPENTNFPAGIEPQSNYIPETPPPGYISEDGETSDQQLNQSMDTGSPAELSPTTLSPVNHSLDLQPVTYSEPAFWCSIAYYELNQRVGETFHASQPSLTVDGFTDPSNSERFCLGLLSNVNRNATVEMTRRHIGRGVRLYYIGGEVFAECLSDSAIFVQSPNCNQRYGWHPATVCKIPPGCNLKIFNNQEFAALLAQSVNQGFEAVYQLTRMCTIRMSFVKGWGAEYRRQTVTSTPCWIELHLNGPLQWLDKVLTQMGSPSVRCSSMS

Row | nuclear import of pSmad2 [2] | Molecule | nuclear import of pSmad3 [1] | Smad3-dependent luciferase activity inhibited [3] | Smad2 signaling (luciferase) [4] | Smad1/5/8 (i.e., BMP) signaling (luciferase) [5] | TGFβ induction of Smad3 targets / Smad3-dependent transcriptional responses [6] | induction of Smad2 targets [7] | TGFβ-stimulated anchorage-independent growth in soft agar (AIG) [8]
1 | no effect | B1 | inhibited nuclear import of pSmad3 in a dose-dependent manner | about 70% | no discernible effect | no discernible effect | inhibited | unaffected | inhibited
2 |  | B2 | ineffective in modulating nuclear translocation |  |  |  | inert |  | inert
